Like-named read-outs stand apart in the source and are kept apart here.
Tests used:
[1] = format: in vitro ADME, human
Experimental: (§1) Briefly, 100 µL of the radiolabeled complex was added to 100 µL PBS 1X or human serum (HSA […]) in triplicate. [^67Cu]Cu-SAR-BBN was incubated at 37 °C for 14, 24, 48, 72, and 96 h with moderate agitation. An aliquot (0.5 μL) was withdrawn at each specified time point. Radio-TLCs with a mobile phase of 50 mM DTPA were performed to evaluate the percentage of intact radiolabeled peptides.

Stability in PBS 1X = format: physicochemical; conditions: 1:1 with radiolabeled complex, 37 °C, 96 h, moderate agitation, radio-TLC, 50 mM DTPA, triplicate
Experimental: as §1

[2] = Biodistribution in normal tissues; format: in vivo, C57BL/6 female mice; conditions: for tissue uptake at 2 h / tissue uptake at 4 h / tissue uptake at 6 h / tissue uptake at 24 h / tissue uptake at 72 h / tissue uptake at 144 h / tissue uptake at 216 h / tissue uptake at 1 h: female, C57BL/6, mouse, iv, 0.37 MBq, total radioactivity
Experimental: To determine the biodistribution of [^67Cu]Cu-SAR-BBN in normal tissues, 40 female C57BL/6 mice were evaluated in groups of 5 mice at various time points. [^67Cu]Cu-SAR-BBN was prepared in 0.9% saline with a concentration of 0.37 MBq (10 µCi) per 100 µL. Mice (n = 5) were injected with 0.37 MBq radiotracers via tail vein and sacrificed by cervical dislocation at 1 h, 2 h, 4 h, 6 h, 24 h, 3 days, 6 days, and 9 days. Blood, lung, liver, spleen, kidney, muscle, heart, bone, and pancreas were harvested and counted for activity on a gamma counter. The percent injected dose per gram for each tissue of interest (% ID/g) was calculated and expressed as Mean ± SD. All radioactivity measurements were corrected for decay.

PC-3 tumors = assay: Therapy study in PC-3 tumor-bearing mice; format: in vivo, athymic nude mice
Experimental: To assess the therapeutic potential of [^67Cu]Cu-SAR-BBN, athymic nude mice bearing subcutaneous PC-3 tumors with a tumor size of ~150 mm^3 were randomly assigned into 2 groups (n = 12 mice per group). For treatment, mice were dosed intravenously with three injections of 24 MBq [^67Cu]Cu-SAR-BBN on days 0, 2, and 4, followed by a drug-free week before the injections of 24 MBq on days 14, 16, and 18. The total activity injected corresponded to 144 MBq. The control group was injected via tail vein with six injections of 0.9% saline at the same time points. Body weight and tumor volume (through caliper measurements) were monitored and recorded three times a week. Tumor size was calculated by the following formula: L × W^2/2, where L is the long diameter of the tumor and W is the short diameter of the tumor. […] Any remaining mice at day 54 were euthanized, and tumor volume and survival curves were generated and analyzed to evaluate the efficacy of [^67Cu]Cu-SAR-BBN. Percentage tumor growth inhibition was calculated as 100 × (1 − ΔT/ΔC), where ΔC and ΔT were determined by subtracting the mean tumor volume (in the vehicle control and treated group, respectively) on day 0 of treatment from the mean tumor volume on day 19 (the last day all mice remained in the study). […]

CC(C)C[C@H](NC(=O)C[C@H](O)[C@H](CC(C)C)NC(=O)[C@H](Cc1c[nH]cn1)NC(=O)CNC(=O)[C@@H](NC(=O)[C@H](C)NC(=O)[C@H](Cc1c[nH]c2ccccc12)NC(=O)[C@H](CCC(N)=O)NC(=O)[C@@H](Cc1ccccc1)NC(=O)CCOCCOCCOCCOCCNC(=O)CCCC(=O)NC12CNCCNCC(C)(CNCCNC1)CNCCNC2)C(C)C)C(N)=O [[^67Cu]Cu-SAR-BBN, metal not drawn]
free 67Cu in human serum [1]: < 5%
intact radiolabeled peptide in PBS 1X (Stability in PBS 1X): greater than 95%
Kidney %ID/g ([2]; 1 h after i.v. injection of 0.37 MBq, mean, n = 5): 6.15 %ID/g
tissue uptake at 2 h ([2]; in vivo, Blood %ID/g): 0.62 %ID/g
tissue uptake at 4 h ([2]; in vivo, Blood %ID/g): 0.53 %ID/g
tissue uptake at 6 h ([2]; in vivo, Blood %ID/g): 0.54 %ID/g
tissue uptake at 24 h ([2]; in vivo, Blood %ID/g): 0.33 %ID/g
tissue uptake at 72 h ([2]; in vivo, Blood %ID/g): 0.39 %ID/g
tissue uptake at 144 h ([2]; in vivo, Blood %ID/g): 0.11 %ID/g
tissue uptake at 216 h ([2]; in vivo, Blood %ID/g): 0.06 %ID/g
tissue uptake at 1 h ([2]; in vivo, Bone %ID/g): 0.88 %ID/g
tissue uptake at 2 h ([2]; in vivo, Bone %ID/g): 0.4 %ID/g
tissue uptake at 4 h ([2]; in vivo, Bone %ID/g): 0.47 %ID/g
tissue uptake at 6 h ([2]; in vivo, Bone %ID/g): 0.46 %ID/g
tissue uptake at 24 h ([2]; in vivo, Bone %ID/g): 0.31 %ID/g
tissue uptake at 72 h ([2]; in vivo, Bone %ID/g): 0.25 %ID/g
tissue uptake at 144 h ([2]; in vivo, Bone %ID/g): 0.09 %ID/g
tissue uptake at 216 h ([2]; in vivo, Bone %ID/g): 0.09 %ID/g
tissue uptake at 1 h ([2]; in vivo, Heart %ID/g): 1 %ID/g
tissue uptake at 2 h ([2]; in vivo, Heart %ID/g): 0.58 %ID/g
tissue uptake at 4 h ([2]; in vivo, Heart %ID/g): 0.78 %ID/g
tissue uptake at 6 h ([2]; in vivo, Heart %ID/g): 0.84 %ID/g
tissue uptake at 24 h ([2]; in vivo, Heart %ID/g): 0.84 %ID/g
tissue uptake at 72 h ([2]; in vivo, Heart %ID/g): 1.35 %ID/g
tissue uptake at 144 h ([2]; in vivo, Heart %ID/g): 0.93 %ID/g
tissue uptake at 216 h ([2]; in vivo, Heart %ID/g): 0.58 %ID/g
tissue uptake at 2 h ([2]; in vivo, Liver %ID/g): 5.08 %ID/g
tissue uptake at 4 h ([2]; in vivo, Liver %ID/g): 5.9 %ID/g
tissue uptake at 6 h ([2]; in vivo, Liver %ID/g): 6.78 %ID/g
tissue uptake at 24 h ([2]; in vivo, Liver %ID/g): 3.8 %ID/g
tissue uptake at 72 h ([2]; in vivo, Liver %ID/g): 4.03 %ID/g
tissue uptake at 144 h ([2]; in vivo, Liver %ID/g): 1.31 %ID/g
tissue uptake at 216 h ([2]; in vivo, Liver %ID/g): 0.59 %ID/g
tissue uptake at 2 h ([2]; in vivo, Lung %ID/g): 1.95 %ID/g
tissue uptake at 4 h ([2]; in vivo, Lung %ID/g): 2.68 %ID/g
tissue uptake at 6 h ([2]; in vivo, Lung %ID/g): 3.25 %ID/g
tissue uptake at 24 h ([2]; in vivo, Lung %ID/g): 1.81 %ID/g
tissue uptake at 72 h ([2]; in vivo, Lung %ID/g): 1.89 %ID/g
tissue uptake at 144 h ([2]; in vivo, Lung %ID/g): 0.68 %ID/g
tissue uptake at 216 h ([2]; in vivo, Lung %ID/g): 0.32 %ID/g
tissue uptake at 1 h ([2]; in vivo, Muscle %ID/g): 0.52 %ID/g
tissue uptake at 2 h ([2]; in vivo, Muscle %ID/g): 0.25 %ID/g
tissue uptake at 4 h ([2]; in vivo, Muscle %ID/g): 0.35 %ID/g
tissue uptake at 6 h ([2]; in vivo, Muscle %ID/g): 0.59 %ID/g
tissue uptake at 24 h ([2]; in vivo, Muscle %ID/g): 0.2 %ID/g
tissue uptake at 72 h ([2]; in vivo, Muscle %ID/g): 0.27 %ID/g
tissue uptake at 144 h ([2]; in vivo, Muscle %ID/g): 0.21 %ID/g
tissue uptake at 216 h ([2]; in vivo, Muscle %ID/g): 0.15 %ID/g
tissue uptake at 2 h ([2]; in vivo, Pancreas %ID/g): 14.7 %ID/g
tissue uptake at 4 h ([2]; in vivo, Pancreas %ID/g): 5.48 %ID/g
tissue uptake at 6 h ([2]; in vivo, Pancreas %ID/g): 3.38 %ID/g
tissue uptake at 24 h ([2]; in vivo, Pancreas %ID/g): 0.55 %ID/g
tissue uptake at 72 h ([2]; in vivo, Pancreas %ID/g): 0.75 %ID/g
tissue uptake at 144 h ([2]; in vivo, Pancreas %ID/g): 0.39 %ID/g
tissue uptake at 216 h ([2]; in vivo, Pancreas %ID/g): 0.22 %ID/g
tissue uptake at 1 h ([2]; in vivo, Spleen %ID/g): 1.94 %ID/g
tissue uptake at 2 h ([2]; in vivo, Spleen %ID/g): 1.27 %ID/g
tissue uptake at 4 h ([2]; in vivo, Spleen %ID/g): 0.94 %ID/g
tissue uptake at 6 h ([2]; in vivo, Spleen %ID/g): 0.9 %ID/g
tissue uptake at 24 h ([2]; in vivo, Spleen %ID/g): 0.51 %ID/g
tissue uptake at 72 h ([2]; in vivo, Spleen %ID/g): 0.74 %ID/g
tissue uptake at 144 h ([2]; in vivo, Spleen %ID/g): 0.3 %ID/g
tissue uptake at 216 h ([2]; in vivo, Spleen %ID/g): 0.14 %ID/g
tissue uptake at 2 h ([2]; kidney, 2 h after i.v. injection of 0.37 MBq, mean, n = 5, read-out: Kidney %ID/g): 3.99 %ID/g
tissue uptake at 4 h ([2]; kidney, 4 h after i.v. injection of 0.37 MBq, mean, n = 5, read-out: Kidney %ID/g): 3.48 %ID/g
tissue uptake at 6 h ([2]; kidney, 6 h after i.v. injection of 0.37 MBq, mean, n = 5, read-out: Kidney %ID/g): 3.53 %ID/g
tissue uptake at 24 h ([2]; kidney, 24 h after i.v. injection of 0.37 MBq, mean, n = 5, read-out: Kidney %ID/g): 2.37 %ID/g
tissue uptake at 72 h ([2]; kidney, 72 h after i.v. injection of 0.37 MBq, mean, n = 5, read-out: Kidney %ID/g): 3.1 %ID/g
tissue uptake at 144 h ([2]; kidney, 6 days after i.v. injection of 0.37 MBq, mean, n = 5, read-out: Kidney %ID/g): 1.37 %ID/g
tissue uptake at 216 h ([2]; kidney, 9 days after i.v. injection of 0.37 MBq, mean, n = 5, read-out: Kidney %ID/g): 0.74 %ID/g
reduction of activity circulating in the blood relative to the 1 h value ([2]; mouse, in vivo): over 70%
rapid recurrence of tumor needing early sacrifice (PC-3 tumors; 144 MBq over 3 weeks): no animals having a rapid recurrence
median survival (time to tumor endpoint of 2500 mm^3) (PC-3 tumors; six i.v. doses of 24 MBq, total 144 MBq, n = 12, study ended day 54, control 34.5 days, p = 0.0015): greater than 54 days
